Patent US7084106

Target: cell surface class I HLA-ABC molecules on human umbilical cord vascular endothelial cells (HUVECs) (human)
Test: flow cytometry on HUVECs, isotype-matched mouse IgG2a control

percent binding (control threshold): < 1%
Substance: isotype-matched mouse IgG2a mAb (nonspecific mouse monoclonal antibody)
